Target: Klebsiella phage GH-K3-derived depolymerase Depo32 (Klebsiella phage GH-K3)
Experiment: cryo-EM structure; Depo32 purified by size exclusion chromatography, 0.5-1.0 mg/mL, on glow-discharged C-flat carbon grids; 2.46 Å nonsymmetrized and 2.32 Å C3-symmetrized maps; homotrimer

Klebsiella phage GH-K3-derived depolymerase Depo32 (enzyme)
stoichiometry N: 3

— PMC10581125
